The assay deals with F-actin (rabbit, UniProt P68135 1-377). Put plainly: co-sedimentation.

Drawing on publication PMC11429872 (bioRxiv, 2024), this text covers Kd for two molecules.

Residue numbers refer to the chain shown, from its start. In names and notes the source's numbering stands.

The term Kd denotes the free concentration of one partner at which half of the binding sites on the other are occupied at equilibrium, for simple one-to-one binding. The low end stands for higher affinity, the high end for lower affinity.

B1: β-III-spectrin-FLAG fragment (amino acids 1-1066), wild-type (domain or fragment)
chain: MSSTLSPTDFDSLEIQGQYSDINNRWDLPDSDWDNDSSSARLFERSRIKALADEREAVQKKTFTKWVNSHLARVTCRVGDLYSDLRDGRNLLRLLEVLSGEILPKPTKGRMRIHCLENVDKALQFLKEQKVHLENMGSHDIVDGNHRLTLGLVWTIILRFQIQDISVETEDNKEKKSAKDALLLWCQMKTAGYPNVNVHNFTTSWRDGLAFNAIVHKHRPDLLDFESLKKCNAHYNLQNAFNLAEKELGLTKLLDPEDVNVDQPDEKSIITYVATYYHYFSKMKALAVEGKRIGKVLDHAMEAERLVEKYESLASELLQWIEQTIVTLNDRQLANSLSGVQNQLQSFNSYRTVEKPPKFTEKGNLEVLLFTIQSKLRANNQKVYTPREGRLISDINKAWERLEKAEHERELALRTELIRQEKLEQLAARFDRKAAMRETWLSENQRLVSQDNFGLELAAVEAAVRKHEAIETDIVAYSGRVQAVDAVAAELAAERYHDIKRIAARQHNVARLWDFLRQMVAARRERLLLNLELQKVFQDLLYLMDWMEEMKGRLQSQDLGRHLAGVEDLLQLHELVEADIAVQAERVRAVSASALRFCNPGKEYRPCDPQLVSERVAKLEQSYEALCELAAARRARLEESRRLWRFLWEVGEAEAWVREQQHLLASADTGRDLTGALRLLNKHTALRGEMSGRLGPLKLTLEQGQQLVAEGHPGASQASARAAELQAQWERLEALAEERAQRLAQAASLYQFQADANDMEAWLVDALRLVSSPELGHDEFSTQALARQHRALEEEIRSHRPTLDALREQAAALPPTLSRTPEVQSRVPTLERHYEELQARAGERARALEAALALYTMLSEAGACGLWVEEKEQWLNGLALPERLEDLEVVQQRFETLEPEMNTLAAQITAVNDIAEQLLKANPPGKDRIVNTQEQLNHRWQQFRRLADGKKAALTSALSIQNYHLECTETQAWMREKTKVIESTQGLGNDLAGVLALQRKLAGTERDLEAIAARVGELTREANALAAGHPAQAVAINARLREVQTGWEDLRATMRRREESLGEARR
B1 gave a Kd of 24.6 ± 12 µM.

B2: β-III-spectrin-FLAG fragment (amino acids 1-1066), R480W (domain or fragment)
chain: B1 chain with R480W
Consider B2, for which the Kd worked out at 34.9 ± 14.4 µM.
